Reference: US20180172701A1 (published 2018)

B1: CA185_01979 mouse IgG1 (antibody, V domains shown)
VH: EVHLVESGPGLVKPSQSLSLTCSVTGYSITNSYWDWIRKFPGNKMEWMGYINYSGSTGYNPSLKSRISISRDTSNNQFFLQLNSITTEDTATYYCARGTYGYNAYHFDYWGRGVMVTVSS
VL: DIQMTQSPASLSASLEEIVTITCQASQDIGNWLSWYQQKPGKSPHLLIYGTTSLADGVPSRFSGSRSGTQYSLKISGLQVADIGIYVCLQAYSTPFTFGSGTKLEIKR
notes: also called CA185_01979.0; VR0001842
B2: CA185_01979 mFab (no hinge) (Fab, V domains shown)
VH: EVHLVESGPGLVKPSQSLSLTCSVTGYSITNSYWDWIRKFPGNKMEWMGYINYSGSTGYNPSLKSRISISRDTSNNQFFLQLNSITTEDTATYYCARGTYGYNAYHFDYWGRGVMVTVSS
VL: DIQMTQSPASLSASLEEIVTITCQASQDIGNWLSWYQQKPGKSPHLLIYGTTSLADGVPSRFSGSRSGTQYSLKISGLQVADIGIYVCLQAYSTPFTFGSGTKLEIKR
notes: also called CA185_01979 Fab

Tests used:
[1] = target: T1, human TNFα without compound (apo) (human, UniProt P01375 77-233); assay: SPR BIAcore T200; IgG captured on anti-mouse Fc; apo TNFα 50 nM injected
T1 construct: In-house human TNFα; No compound, DMSO only; also called apo human TNFα; hTNF
T1 sequence (P01375 77-233 limits assumed): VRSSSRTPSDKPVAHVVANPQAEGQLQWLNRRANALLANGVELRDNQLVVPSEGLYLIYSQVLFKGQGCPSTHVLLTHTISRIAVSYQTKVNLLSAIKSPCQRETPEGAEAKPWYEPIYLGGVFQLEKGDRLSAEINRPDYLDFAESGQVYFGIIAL

[2] = target: T2, human TNFα in complex with compound (1) (human, UniProt P01375 77-233); assay: SPR BIAcore T200; IgG captured on anti-mouse Fc; TNFα 50 nM + 2 µM compound injected
T2 construct: also called human TNFα +compound (1); TNFα-compound (1) complex
T2 sequence (P01375 77-233 limits assumed, one chain of several): as the sequence (P01375 77-233 limits assumed) above

[3] = target: T3, human TNFα in complex with compound (2) (human, UniProt P01375 77-233); assay: as above
T3 construct: also called human TNFα +compound (2)
T3 sequence (P01375 77-233 limits assumed, one chain of several): as the sequence (P01375 77-233 limits assumed) above

[4] = target: T2, human TNFα in complex with compound (1); assay: SPR BIAcore T200; IgG captured on anti-mouse Fc
[5] = target: T3, human TNFα in complex with compound (2); assay: SPR BIAcore T200; IgG captured on anti-mouse Fc
[6] = target: T2, human TNFα in complex with compound (1); assay: size exclusion chromatography (HPLC), molar excess of Fab

Binder	Kd [1] [nM]	koff [1] [s⁻¹]	kon [1] [M⁻¹ s⁻¹]	Kd [2] [nM]	koff [2] [s⁻¹]	kon [2] [M⁻¹ s⁻¹]	Kd [3] [nM]	koff [3] [s⁻¹]	kon [3] [M⁻¹ s⁻¹]	log selective binding for compound-distorted against apo human TNFα [4] [log]	log selective binding for compound-distorted against apo human TNFα [5] [log]	stoichiometry (Fab : TNFα trimer) [6] [Fab per TNFα trimer]
B1	6.7	0.00071	110000	0.034	1.6e-05	470000	0.058	3.3e-05	570000	> 2	> 2	–
B2	–	–	–	–	–	–	–	–	–	–	–	1
